Square brackets hold non-standard residues; d marks the D form. Ends that are not written are not given here. Aib = CC(C)(N)C(=O)O
B1: Compound No. 22 (peptide)
peptide: Y[Aib]EGTFTSDYSIYLD[Aib]IAAQEFVQWLLAGGPSSGAPPPSK-NH2
modifications: N-terminus assumed
SMILES: CC[C@H](C)[C@H](NC(=O)[C@H](CO)NC(=O)[C@H](Cc1ccc(O)cc1)NC(=O)[C@H](CC(=O)O)NC(=O)[C@H](CO)NC(=O)[C@@H](NC(=O)[C@H](Cc1ccccc1)NC(=O)[C@@H](NC(=O)CNC(=O)[C@H](CCC(=O)O)NC(=O)C(C)(C)NC(=O)[C@@H](N)Cc1ccc(O)cc1)[C@@H](C)O)[C@@H](C)O)C(=O)N[C@@H](Cc1ccc(O)cc1)C(=O)N[C@@H](CC(C)C)C(=O)N[C@@H](CC(=O)O)C(=O)NC(C)(C)C(=O)N[C@H](C(=O)N[C@@H](C)C(=O)N[C@@H](C)C(=O)N[C@@H](CCC(N)=O)C(=O)N[C@@H](CCC(=O)O)C(=O)N[C@@H](Cc1ccccc1)C(=O)N[C@H](C(=O)N[C@@H](CCC(N)=O)C(=O)N[C@@H](Cc1c[nH]c2ccccc12)C(=O)N[C@@H](CC(C)C)C(=O)N[C@@H](CC(C)C)C(=O)N[C@@H](C)C(=O)NCC(=O)NCC(=O)N1CCC[C@H]1C(=O)N[C@@H](CO)C(=O)N[C@@H](CO)C(=O)NCC(=O)N[C@@H](C)C(=O)N1CCC[C@H]1C(=O)N1CCC[C@H]1C(=O)N1CCC[C@H]1C(=O)N[C@@H](CO)C(=O)N[C@@H](CCCCN)C(N)=O)C(C)C)[C@@H](C)CC
B2: Compound No. 1 (peptide)
peptide: H[Aib]EGTFTSDVSSYLEEEAAKEFIAWLVRGGPSSGAPPPSK-NH2
modifications: N-terminus assumed
SMILES: CC[C@H](C)[C@H](NC(=O)[C@H](Cc1ccccc1)NC(=O)[C@H](CCC(=O)O)NC(=O)[C@H](CCCCN)NC(=O)[C@H](C)NC(=O)[C@H](C)NC(=O)[C@H](CCC(=O)O)NC(=O)[C@H](CCC(=O)O)NC(=O)[C@H](CCC(=O)O)NC(=O)[C@H](CC(C)C)NC(=O)[C@H](Cc1ccc(O)cc1)NC(=O)[C@H](CO)NC(=O)[C@H](CO)NC(=O)[C@@H](NC(=O)[C@H](CC(=O)O)NC(=O)[C@H](CO)NC(=O)[C@@H](NC(=O)[C@H](Cc1ccccc1)NC(=O)[C@@H](NC(=O)CNC(=O)[C@H](CCC(=O)O)NC(=O)C(C)(C)NC(=O)[C@@H](N)Cc1c[nH]cn1)[C@@H](C)O)[C@@H](C)O)C(C)C)C(=O)N[C@@H](C)C(=O)N[C@@H](Cc1c[nH]c2ccccc12)C(=O)N[C@@H](CC(C)C)C(=O)N[C@H](C(=O)N[C@@H](CCCNC(=N)N)C(=O)NCC(=O)NCC(=O)N1CCC[C@H]1C(=O)N[C@@H](CO)C(=O)N[C@@H](CO)C(=O)NCC(=O)N[C@@H](C)C(=O)N1CCC[C@H]1C(=O)N1CCC[C@H]1C(=O)N1CCC[C@H]1C(=O)N[C@@H](CO)C(=O)N[C@@H](CCCCN)C(N)=O)C(C)C
B3: Compound No. 63 (peptide)
peptide: Y[Aib]EGTFTSDYSIYLEKEAAKEFINWLLAGGPSSGAPPPS-NH2
modifications: N-terminus assumed
SMILES: CC[C@H](C)[C@H](NC(=O)[C@H](Cc1ccccc1)NC(=O)[C@H](CCC(=O)O)NC(=O)[C@H](CCCCN)NC(=O)[C@H](C)NC(=O)[C@H](C)NC(=O)[C@H](CCC(=O)O)NC(=O)[C@H](CCCCN)NC(=O)[C@H](CCC(=O)O)NC(=O)[C@H](CC(C)C)NC(=O)[C@H](Cc1ccc(O)cc1)NC(=O)[C@@H](NC(=O)[C@H](CO)NC(=O)[C@H](Cc1ccc(O)cc1)NC(=O)[C@H](CC(=O)O)NC(=O)[C@H](CO)NC(=O)[C@@H](NC(=O)[C@H](Cc1ccccc1)NC(=O)[C@@H](NC(=O)CNC(=O)[C@H](CCC(=O)O)NC(=O)C(C)(C)NC(=O)[C@@H](N)Cc1ccc(O)cc1)[C@@H](C)O)[C@@H](C)O)[C@@H](C)CC)C(=O)N[C@@H](CC(N)=O)C(=O)N[C@@H](Cc1c[nH]c2ccccc12)C(=O)N[C@@H](CC(C)C)C(=O)N[C@@H](CC(C)C)C(=O)N[C@@H](C)C(=O)NCC(=O)NCC(=O)N1CCC[C@H]1C(=O)N[C@@H](CO)C(=O)N[C@@H](CO)C(=O)NCC(=O)N[C@@H](C)C(=O)N1CCC[C@H]1C(=O)N1CCC[C@H]1C(=O)N1CCC[C@H]1C(=O)N[C@@H](CO)C(N)=O
B4: Compound No. 64 (peptide)
peptide: Y[Aib]EGTFTSDYSIYLEKEAAKEFVQWLLAGGPSSGAPPPS-NH2
modifications: N-terminus assumed
SMILES: CC[C@H](C)[C@H](NC(=O)[C@H](CO)NC(=O)[C@H](Cc1ccc(O)cc1)NC(=O)[C@H](CC(=O)O)NC(=O)[C@H](CO)NC(=O)[C@@H](NC(=O)[C@H](Cc1ccccc1)NC(=O)[C@@H](NC(=O)CNC(=O)[C@H](CCC(=O)O)NC(=O)C(C)(C)NC(=O)[C@@H](N)Cc1ccc(O)cc1)[C@@H](C)O)[C@@H](C)O)C(=O)N[C@@H](Cc1ccc(O)cc1)C(=O)N[C@@H](CC(C)C)C(=O)N[C@@H](CCC(=O)O)C(=O)N[C@@H](CCCCN)C(=O)N[C@@H](CCC(=O)O)C(=O)N[C@@H](C)C(=O)N[C@@H](C)C(=O)N[C@@H](CCCCN)C(=O)N[C@@H](CCC(=O)O)C(=O)N[C@@H](Cc1ccccc1)C(=O)N[C@H](C(=O)N[C@@H](CCC(N)=O)C(=O)N[C@@H](Cc1c[nH]c2ccccc12)C(=O)N[C@@H](CC(C)C)C(=O)N[C@@H](CC(C)C)C(=O)N[C@@H](C)C(=O)NCC(=O)NCC(=O)N1CCC[C@H]1C(=O)N[C@@H](CO)C(=O)N[C@@H](CO)C(=O)NCC(=O)N[C@@H](C)C(=O)N1CCC[C@H]1C(=O)N1CCC[C@H]1C(=O)N1CCC[C@H]1C(=O)N[C@@H](CO)C(N)=O)C(C)C
B5: Compound No. 23 (peptide)
peptide: Y[Aib]EGTFTSDYSIYLEKEAAKEFVNWLLAQKPSSGAPPPSK-NH2
modifications: N-terminus assumed
SMILES: CC[C@H](C)[C@H](NC(=O)[C@H](CO)NC(=O)[C@H](Cc1ccc(O)cc1)NC(=O)[C@H](CC(=O)O)NC(=O)[C@H](CO)NC(=O)[C@@H](NC(=O)[C@H](Cc1ccccc1)NC(=O)[C@@H](NC(=O)CNC(=O)[C@H](CCC(=O)O)NC(=O)C(C)(C)NC(=O)[C@@H](N)Cc1ccc(O)cc1)[C@@H](C)O)[C@@H](C)O)C(=O)N[C@@H](Cc1ccc(O)cc1)C(=O)N[C@@H](CC(C)C)C(=O)N[C@@H](CCC(=O)O)C(=O)N[C@@H](CCCCN)C(=O)N[C@@H](CCC(=O)O)C(=O)N[C@@H](C)C(=O)N[C@@H](C)C(=O)N[C@@H](CCCCN)C(=O)N[C@@H](CCC(=O)O)C(=O)N[C@@H](Cc1ccccc1)C(=O)N[C@H](C(=O)N[C@@H](CC(N)=O)C(=O)N[C@@H](Cc1c[nH]c2ccccc12)C(=O)N[C@@H](CC(C)C)C(=O)N[C@@H](CC(C)C)C(=O)N[C@@H](C)C(=O)N[C@@H](CCC(N)=O)C(=O)N[C@@H](CCCCN)C(=O)N1CCC[C@H]1C(=O)N[C@@H](CO)C(=O)N[C@@H](CO)C(=O)NCC(=O)N[C@@H](C)C(=O)N1CCC[C@H]1C(=O)N1CCC[C@H]1C(=O)N1CCC[C@H]1C(=O)N[C@@H](CO)C(=O)N[C@@H](CCCCN)C(N)=O)C(C)C
B6: Compound No. 24 (peptide)
peptide: Y[Aib]EGTFTSDYSIYLEKIAAQEFVNWLLAQKPSSGAPPPSK-NH2
modifications: N-terminus assumed
SMILES: CC[C@H](C)[C@H](NC(=O)[C@H](CCCCN)NC(=O)[C@H](CCC(=O)O)NC(=O)[C@H](CC(C)C)NC(=O)[C@H](Cc1ccc(O)cc1)NC(=O)[C@@H](NC(=O)[C@H](CO)NC(=O)[C@H](Cc1ccc(O)cc1)NC(=O)[C@H](CC(=O)O)NC(=O)[C@H](CO)NC(=O)[C@@H](NC(=O)[C@H](Cc1ccccc1)NC(=O)[C@@H](NC(=O)CNC(=O)[C@H](CCC(=O)O)NC(=O)C(C)(C)NC(=O)[C@@H](N)Cc1ccc(O)cc1)[C@@H](C)O)[C@@H](C)O)[C@@H](C)CC)C(=O)N[C@@H](C)C(=O)N[C@@H](C)C(=O)N[C@@H](CCC(N)=O)C(=O)N[C@@H](CCC(=O)O)C(=O)N[C@@H](Cc1ccccc1)C(=O)N[C@H](C(=O)N[C@@H](CC(N)=O)C(=O)N[C@@H](Cc1c[nH]c2ccccc12)C(=O)N[C@@H](CC(C)C)C(=O)N[C@@H](CC(C)C)C(=O)N[C@@H](C)C(=O)N[C@@H](CCC(N)=O)C(=O)N[C@@H](CCCCN)C(=O)N1CCC[C@H]1C(=O)N[C@@H](CO)C(=O)N[C@@H](CO)C(=O)NCC(=O)N[C@@H](C)C(=O)N1CCC[C@H]1C(=O)N1CCC[C@H]1C(=O)N1CCC[C@H]1C(=O)N[C@@H](CO)C(=O)N[C@@H](CCCCN)C(N)=O)C(C)C

What follows are binders tested against T1, human glucose-dependent insulinotropic peptide receptor (human, UniProt P48546) (assay: cell-based or functional assay).
T1 sequence: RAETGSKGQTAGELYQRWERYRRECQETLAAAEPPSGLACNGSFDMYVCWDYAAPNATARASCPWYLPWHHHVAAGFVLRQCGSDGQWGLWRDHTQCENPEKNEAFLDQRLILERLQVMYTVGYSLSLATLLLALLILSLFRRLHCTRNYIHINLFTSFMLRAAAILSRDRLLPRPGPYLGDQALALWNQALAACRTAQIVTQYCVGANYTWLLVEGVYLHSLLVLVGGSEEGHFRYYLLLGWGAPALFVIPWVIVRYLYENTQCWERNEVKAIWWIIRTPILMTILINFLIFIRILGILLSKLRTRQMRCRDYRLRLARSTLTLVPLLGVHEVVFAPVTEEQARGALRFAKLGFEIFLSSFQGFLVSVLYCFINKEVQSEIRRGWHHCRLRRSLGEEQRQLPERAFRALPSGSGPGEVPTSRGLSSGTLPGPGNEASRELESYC

Binder	Activity for human GIPR (EC50 nM), cAMP HTRF
B1	0.018 nM
B2	> 10 nM
B3	0.02 nM
B4	0.033 nM
B5	0.02 nM
B6	0.008 nM

What follows are binders tested against human glucagon-like peptide-1 receptor (human, UniProt P43220) (assay: cell-based or functional assay).

Binder	Activity for human GLP-1R (EC50 nM), cAMP HTRF
B1	0.051 nM
B2	0.005 nM
B3	0.01 nM
B4	0.02 nM
B5	0.059 nM
B6	0.083 nM
